Results as given in the supplement of paper PMC7877785.
± gives the uncertainty stated by the source.

Test: self-splicing fitness, log relative to wild type (ln ratio); higher = more splicing; Tetrahymena group I intron in knt gene, E. coli kanamycin selection, DiMSum; sequences stand for … in CUCUCU…GGAGGGAAAAGUUAUCAGGCAUGCACCUGGUAGCUAGUCUUUAAACCAAUAGAUUGCAUCGGUUUAAAAGGCAAGACCGUCAAAUUGCGGGAAAGGGGUCAACAGCCGUUCAGUACCAAGUCUCAGGGGAAACUUUGAGAUGGCCUUGCAAAGGGUAUGGUAAUAAGCUGACGGACAUGGUCCUAACCACGCAGCCAAGUCCUAAGUCAACAGAUCUUCUGUUGAUAUGGAUGCAGUUCACAGACUAAAUGUCGGUCGGGGAAGAUGUAUUCUUCUCAUAAGAUAUAGUCGGACCUCUCCUUAAUGGGAGCUAGCGGAUGAAGUGAUGCAACACUGGAGCCGCUGGGAACUAAUUUGUAUGCGAAAGUAUAUUGAUUAGUUUUGGAGUACUCGUGGUCG
Method in brief: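 Colonies from six replicate transformations of E. coli BL21(DE3) were pooled and amplicon-sequenced on an Illumina HiSeq 2500. The library placed an intron with all eight P1ex-region nucleotides randomised inside the knt kanamycin-resistance gene on pET-22b(+), and cells grew overnight at 37°C or 30°C on LB agar with or without 25 μg/mL kanamycin (plus 100 μg/mL carbenicillin, 50 μM IPTG, 0.2% rhamnose). Fitness is the DiMSum error-weighted combination of wild-type-normalised replicate fold changes, kanamycin versus none.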

| Sequence | self-splicing fitness (ln) (30 °C) | self-splicing fitness (ln) (37 °C) |
| --- | --- | --- |
| AGAAAGCAAUAUUACGCCUA | -1.36 ± 0.14 | -1.04 ± 0.17 |
| AGAAAGCAAUAUUACGCGAG | -1.28 ± 0.11 | -0.453 ± 0.13 |
| AGAAAGCAAUAUUACGCGCG | -0.0244 ± 0.1 | -0.00454 ± 0.14 |
| AGAAAGCAAUAUUACGCUAU | -2.98 ± 0.18 | -1.62 ± 0.18 |
| AGAAAGCAAUAUUACGGAGG | -3.33 ± 0.16 | -2.72 ± 0.3 |
| AGAAAGCAAUAUUACGGCCG | -0.348 ± 0.11 | -0.28 ± 0.14 |
| AGAAAGCAAUAUUACGGGAC | -3.06 ± 0.26 | -2 ± 0.32 |
| AGAAAGCAAUAUUACGGUAU | -2.66 ± 0.14 | -0.578 ± 0.12 |
| AGAAAGCAAUAUUACGGUUA | -0.628 ± 0.1 | -0.679 ± 0.083 |
| AGAAAGCAAUAUUACGUACC | -0.284 ± 0.087 | 0.446 ± 0.12 |
| AGAAAGCAAUAUUACGUAGC | -4.04 ± 0.22 | -2.5 ± 0.2 |
| AGAAAGCAAUAUUACGUAGU | -2.98 ± 0.15 | -1.55 ± 0.1 |
| AGAAAGCAAUAUUACGUAUC | -3.62 ± 0.3 | -2.34 ± 0.24 |
| AGAAAGCAAUAUUACGUCAA | -1.61 ± 0.11 | -0.692 ± 0.1 |
| AGAAAGCAAUAUUACGUCAC | -3.52 ± 0.3 | -2.61 ± 0.38 |
| AGAAAGCAAUAUUACGUGAC | -2.53 ± 0.32 | -1.65 ± 0.24 |
| AGAAAGCAAUAUUACGUGGG | -3.69 ± 0.17 | -1.3 ± 0.12 |
| AGAAAGCAAUAUUACGUGUU | -3.31 ± 0.15 | -1.99 ± 0.12 |
| AGACAGCAAUAUUACGAACC | -0.535 ± 0.12 | -0.29 ± 0.19 |
| AGACAGCAAUAUUACGAAGA | -3.75 ± 0.33 | -2.41 ± 0.34 |
| AGACAGCAAUAUUACGACGC | -0.912 ± 0.086 | -0.726 ± 0.11 |
| AGACAGCAAUAUUACGAGCC | -0.273 ± 0.14 | -0.798 ± 0.21 |
| AGACAGCAAUAUUACGAGGA | -3.17 ± 0.22 | -0.745 ± 0.17 |
| AGACAGCAAUAUUACGAUCC | -0.233 ± 0.083 | -0.102 ± 0.11 |
| AGACAGCAAUAUUACGAUGC | -3.36 ± 0.23 | -2.33 ± 0.19 |
| AGACAGCAAUAUUACGCAGG | -3.5 ± 0.2 | -1.25 ± 0.16 |

| Sequence | self-splicing fitness (ln) (30 °C) | self-splicing fitness (ln) (37 °C) |
| --- | --- | --- |
| AGACAGCAAUAUUACGCCCG | -0.434 ± 0.17 | -0.555 ± 0.24 |
| AGACAGCAAUAUUACGCGUU | -3.47 ± 0.16 | -2.11 ± 0.14 |
| AGACAGCAAUAUUACGCUAG | -4.3 ± 0.3 | -2.81 ± 0.22 |
| AGACAGCAAUAUUACGGCCA | -1.28 ± 0.11 | -0.142 ± 0.11 |
| AGACAGCAAUAUUACGGGUG | -3.07 ± 0.09 | -2.37 ± 0.1 |
| AGACAGCAAUAUUACGUAAG | -1.33 ± 0.075 | -0.396 ± 0.088 |
| AGACAGCAAUAUUACGUGUC | -3.93 ± 0.21 | -3.7 ± 0.2 |
| AGACAGCAAUAUUACGUGUU | -3.8 ± 0.16 | -2.29 ± 0.14 |
| AGACAGCAAUAUUACGUUGC | -3.73 ± 0.24 | -3.26 ± 0.37 |
| AGAGAGCAAUAUUACGAGCA | -2.68 ± 0.46 | -1.31 ± 0.27 |
| AGAGAGCAAUAUUACGAUCU | -4.39 ± 0.42 | -2.22 ± 0.2 |
| AGAGAGCAAUAUUACGCACU | -3.16 ± 0.34 | -2.41 ± 0.32 |
| AGAGAGCAAUAUUACGCAUC | -2.22 ± 0.28 | -1.91 ± 0.22 |
| AGAGAGCAAUAUUACGCCUA | -2.6 ± 0.48 | -1.08 ± 0.33 |
| AGAGAGCAAUAUUACGCCUU | -3.56 ± 0.29 | -2.16 ± 0.21 |
| AGAGAGCAAUAUUACGCGCC | -2.58 ± 0.46 |  |
| AGAGAGCAAUAUUACGCGGC | -2.71 ± 0.26 |  |
| AGAGAGCAAUAUUACGCUAC |  | -2.33 ± 0.45 |
| AGAGAGCAAUAUUACGCUUG | -2.97 ± 0.3 | -2.46 ± 0.35 |
| AGAGAGCAAUAUUACGCUUU | -3.54 ± 0.41 | -2.52 ± 0.45 |
| AGAGAGCAAUAUUACGGAAU | -3.36 ± 0.32 | -1.79 ± 0.44 |
| AGAGAGCAAUAUUACGGAGA |  | -2.11 ± 0.37 |
| AGAGAGCAAUAUUACGGAUC | -3.76 ± 0.42 |  |
| AGAGAGCAAUAUUACGGCGA | -2.95 ± 0.39 | -1.82 ± 0.39 |
| AGAGAGCAAUAUUACGGCUC | -3.01 ± 0.27 | -1.37 ± 0.25 |
| AGAGAGCAAUAUUACGGGAC |  | -2.61 ± 0.44 |

| Sequence | self-splicing fitness (ln) (30 °C) | self-splicing fitness (ln) (37 °C) |
| --- | --- | --- |
| AGAGAGCAAUAUUACGGGUU | -4.74 ± 0.46 | -2.08 ± 0.23 |
| AGAGAGCAAUAUUACGGUGC | -4.34 ± 0.42 | -2.07 ± 0.29 |
| AGAGAGCAAUAUUACGUAAG | -3.25 ± 0.26 | -2.7 ± 0.36 |
| AGAGAGCAAUAUUACGUAAU | -4.18 ± 0.33 | -2.81 ± 0.34 |
| AGAGAGCAAUAUUACGUAUC |  | -2.03 ± 0.17 |
| AGAGAGCAAUAUUACGUCGA | -2 ± 0.32 |  |
| AGAGAGCAAUAUUACGUGCU |  | -1.44 ± 0.28 |
| AGAUAGCAAUAUUACGACCG | -1.01 ± 0.17 | 0.121 ± 0.32 |
| AGAUAGCAAUAUUACGAGGC | -0.902 ± 0.39 | -0.819 ± 0.21 |
| AGAUAGCAAUAUUACGAUAC | -3.11 ± 0.26 | -0.943 ± 0.19 |
| AGAUAGCAAUAUUACGAUCG | 0.112 ± 0.058 | 0.0462 ± 0.1 |
| AGAUAGCAAUAUUACGAUUG | -1.65 ± 0.11 | -1.81 ± 0.18 |
| AGAUAGCAAUAUUACGCAAG | -2.2 ± 0.15 | -0.0746 ± 0.16 |
| AGAUAGCAAUAUUACGCACA | -0.827 ± 0.07 | -0.123 ± 0.087 |
| AGAUAGCAAUAUUACGCAUU | -2.76 ± 0.21 | -1.02 ± 0.21 |
| AGAUAGCAAUAUUACGCGUC | -2.53 ± 0.2 | -0.587 ± 0.47 |
| AGAUAGCAAUAUUACGGAGU | -3.25 ± 0.15 | -2.33 ± 0.15 |
| AGAUAGCAAUAUUACGGGCA | -1.12 ± 0.13 | 0.0415 ± 0.12 |
| AGAUAGCAAUAUUACGGGGA | -3.46 ± 0.31 | -3.05 ± 0.35 |
| AGAUAGCAAUAUUACGGGUA | -1.35 ± 0.11 | -1.8 ± 0.14 |
| AGAUAGCAAUAUUACGGUGU | -2.01 ± 0.096 | -1.15 ± 0.1 |
| AGAUAGCAAUAUUACGUACC | -0.423 ± 0.13 | 0.0629 ± 0.14 |
| AGAUAGCAAUAUUACGUACG | -1.38 ± 0.096 | -0.00695 ± 0.11 |
| AGAUAGCAAUAUUACGUAUU | -2.63 ± 0.14 | -1.35 ± 0.12 |
| AGAUAGCAAUAUUACGUCGU | -1.21 ± 0.082 | -0.136 ± 0.099 |
| AGAUAGCAAUAUUACGUGCG | -1.19 ± 0.06 | -0.409 ± 0.081 |
